Test results as given in patent US11672846B2, “Soluble bacterial and fungal proteins and methods and uses thereof in inhibiting and dispersing biofilm” (priority 2014, dated 2023).
Entries after “also recorded” stand apart in the source; their conditions may differ. Like-named read-outs stand apart in the source and are kept apart here.

Experiments:
[1] = system: PNAG-overproducing E. coli; assay: Inhibition of PNAG-dependent E. coli biofilm formation (crystal violet); conditions: read-out: EC50 of E. coli biofilm formation prevention, static 24 h at 26° C.
Protocol: In brief, PNAG-overproducing E. coli or S. carnosus was grown at 37° C. overnight in LB broth supplement with 200 μg/mL ampicillin and 100 μg/mL kanamycin, and 10 μg/mL tetracycline, respectively, with shaking at 200 rpm. Fresh cultures with antibiotic were prepared from the overnight culture using a 1:100 dilution, using LB broth for E. coli, and tryptic soy broth for S. carnosus. 95 μL of diluted culture was added to a sterile 96-well polystyrene round bottom microtiter plate and varying concentrations of protein (2 nM-5 μM) were added in 5 μL aliquots to give a final volume of 100 μL. The cultures were incubated statically for 24 h at 26° C. for E. coli, and 37° C. for S. carnosus, to allow for biofilm formation. To eliminate edge-effects, ˜200 μL of sterile water was placed in all outside wells and the plate was sealed with parafilm. After incubation non-adherent cells and media were removed by washing the plate with deionized water three times. The wells were stained with 150 μL of 0.1% (w/v) crystal violet for 10 min, and washed with water three times. The remaining dye was solubilized with 100 μL of 33% (v/v) acetic acid for 10 min with rotation, after which time the absorbance was measured at 595 nm using a SpectraMax M2 from Molecular Devices (Sunnyvale, Calif.). […] All reactions were completed in at least triplicates and buffer G was used as an untreated control. Either an E. coli pgaABCD knockout strain (DPGA) or S. carnosus treated with gentamycin, was used as a control for background straining.

[2] = Reducing sugar assay on dPNAG; format: biochemical, S. aureus
Protocol: Isolated dPNAG from S. aureus strain MN8m was solubilized in 6 N HCl at ˜10 mg/mL. 10 N NaOH was used to titrate the re-suspension until neutrality was reached, ˜pH 7-8. In a 50 μL reaction, 1 μM BpsB318-670 was incubated with 1-5 mg/mL of dPNAG in 100 mM HEPES pH 7.0 for 18 hours. The sample was split into two 20 μL aliquots and treated with DTT/3-Methyl-2-benzothiazolinone hydrazone hydrochloride hydrate and heated at 80° C. for 15 minutes. A solution of 0.5% (w/w) iron (III) ammonium sulfate dodecahydrate, 0.5% (w/w) sulfamic acid, and 0.25 N hydrochloric acid was added, mixed, and cooled to room temperature. […] Protein and dPNAG in buffer H were used as background controls.

[3] = system: PNAG-overproducing E. coli biofilms; assay: Dispersal of pre-formed PNAG-dependent E. coli biofilms; conditions: for EC50: read-out: EC50 of degradation of pre-formed E. coli biofilm, 60 min, average starting OD595 of 0.5
Protocol: Bacterial cultures expressing Psl were inoculated as stated above and were grown at 37° C. overnight with shaking at 200 rpm. All cultures were diluted in 1:100 in LB and arabinose was added to a final concentration of 0.5% (w/v) to induce Psl biosynthesis. Media containing the Psl-producing cultures were supplemented with 200 μg/mL ampicillin and 100 μg/mL kanamycin. The cultures were incubated statically for 24 h at 26° C. to allow for biofilm formation. After incubation non-adherent cells and media were removed by washing the plate with deionized water three times. The wells were filled with 95 μL of 100 mM sodium HEPES buffer pH 7.0 followed by 5 μL of varying concentrations of each hydrolytic enzyme (2 nM-5 μM). Reactions were allowed to proceed for up to 60 min at 25° C. on a rotating nutator at which time, the reaction was quenched by washing the plates with deionized water. The wells were stained with 200 μL of 0.1% (w/v) crystal violet for 10 min, and washed with water three times. Crystal violet dye from Psi cultures was solubilized in 100 μL of 95% ethanol for 10 min with rotation, after which time the absorbance was measured at 595 nm using a SpectraMax M2 from Molecular Devices (Sunnyvale, Calif.). The amount of biofilm is proportional to the absorbance from staining with crystal violet (Merritt et al 2005). All reactions were completed in at least triplicate and 100 mM sodium HEPES buffer pH 7.0 was used as an untreated control. The addition of 2.5 mg/mL kanamycin to culture prior to biofilm formation was used as a positive control as no cell growth occurs.
PNAG-overproducing E. coli was grown at 37° C. overnight in LB broth supplement with 200 ug/mL ampicillin and 100 ug/mL kanamycin with shaking at 200 rpm. An E. coli μgaABCD knockout strain was used as a non-biofilm forming control for background straining.

[4] = system: P. aeruginosa PAO1 pBADpsl; assay: Inhibition of Psl biofilm formation in static culture (crystal violet); format: cell-based, Pseudomonas aeruginosa
[5] = system: Psl biofilms of P. aeruginosa PAO1 pBADpsl; assay: Dispersal of pre-formed Psl biofilms (crystal violet); format: cell-based, Pseudomonas aeruginosa
[6] = purified protein
[7] = system: P. aeruginosa PAO1 ΔwspFΔpslpBADpel; assay: Inhibition of Pel biofilm formation in static culture (crystal violet); conditions: specificity control
[8] = system: pre-formed A. fumigatus GAG biofilms; format: cell-based; conditions: for dispersal of pre-formed GAG biofilm (in words): crystal violet
[9] = system: A. fumigatus GAG biofilm; assay: Inhibition of GAG-dependent A. fumigatus biofilm formation (crystal violet); format: cell-based
[10] = Reducing sugar assay on purified GAG; format: biochemical, A. fumigatus; conditions: 10-20 μM protein, 26° C., 24 h
Protocol: Crude GAG was isolated from A. fumigatus biofilms. 200 μL GAG aliquots were centrifuged to pellet the gelatinous fraction. The pellets were washed twice with 350 μL PBS. The wash procedure included vortexing for 5 min, sonicated in a bath for 3 min, and manual mixing by pipetting to reach homogeneity. The final pellet was resuspended in 200 μL of PBS. Samples were treated with 10-20 μM protein and incubated at 26° C. Samples were taken at 24 h. GAG hydrolysis was quantified using a reducing sugar assay as described previously (Anthon & Barrett 2002) with slight modifications. Briefly, 20 μL of enzyme reaction was mixed with 20 μL of 0.5 M NaOH and 20 μL of MBTH/DTT solution (1.5 mg/L 3-methyl-2-benzothiazolinone hydrazine (MBTH) and 0.5 mg/L DTT). The samples were incubated at 80° C. for 15 min before the addition of 40 μL of acidic iron reagent (0.5% (FeNH4(SO4)2).12 H2O, 0.5% sulfamic acid, and 0.25 N HCl). Samples were diluted two-fold in water, before the absorbance was quantified at 620 nm.

[11] = system: A549 pulmonary epithelial cell line injured by A. fumigatus; assay: Chromium release epithelial cell damage assay; conditions: recombinant Sph3 hydrolases, up to 24 h
Protocol: The immortalized airway epithelial cell line A549 was loaded with chromium-51 by incubating monolayers grown in 24-well tissue culture plates with 3 mCi of ^51Cr at 37° C. in 5% CO2 for 24 h. Excess chromium was removed by washing with Hank's Balanced Salt Solution (HBSS). […] For testing germ tubes, conidia were grown for 7 h in SAB media at 37° C., then the fungus was collected and resuspended in DF12K media before 0.5 μM of hydrolase was added. The germ tubes were incubated with hydrolase for 1 h before being added to the A549 cells. After 16, 20 and 24 h of co-incubation, an aliquot of the medium above the cells was retrieved and replaced with fresh media. The cells were then lysed with 6 N NaOH and the lysate collected. The ^51Cr content of the medium and lysates was then measured in a gamma counter and the extent of epithelial cell damage was calculated as a function of the degree of ^51Cr release. Each strain was tested in triplicate, and all results were corrected for spontaneous chromium release by uninfected epithelial cells.
The methodology for prevention of epithelial cell damage caused by A. fumigatus using Sph352-298 is identical to that previously described in Example 19 for the use PelA47-303.

B1: PgaB22-672: PgaB residues 22-672, E. coli K-12 MG1655, SEQ ID NO: 16 (protein, listed as Escherichia coli)
chain: ISQSRTSFIPPQDRESLLAEQPWPHNGFVAISWHNVEDEAADQRFMSVRTSALREQFAWLRENGYQPVSIAQIREAHRGGKPLPEKAVVLTFDDGYQSFYTRVFPILQAFQWPAVWAPVGSWVDTPADKQVKFGDELVDREYFATWQQVREVARSRLVELASHTWNSHYGIQANATGSLLPVYVNRAYFTDHARYETAAEYRERIRLDAVKMTEYLRTKVEVNPHVFVWPYGEANGIAIEELKKLGYDMFFTLESGLANASQLDSIPRVLIANNPSLKEFAQQIITVQEKSPQRIMHIDLDYVYDENLQQMDRNIDVLIQRVKDMQISTVYLQAFADPDGDGLVKEVWFPNRLLPMKADIFSRVAWQLRTRSGVNIYAWMPVLSWDLDPTLTRVKYLPTGEKKAQIHPEQYHRLSPFDDRVRAQVGMLYEDLAGHAAFDGILFHDDALLSDYEDASAPAITAYQQAGFSGSLSEIRQNPEQFKQWARFKSRALTDFTLELSARVKAIRGPHIKTARNIFALPVIQPESEAWFAQNYADFLKSYDWTAIMAMPYLEGVAEKSADQWLIQLTNQIKNIPQAKDKSILELQAQNWQKNGQHQAISSQQLAHWMSLLQLNGVKNYGYYPDNFLHNQPEIDLIRPEFSTAWYPKND
**Q.** With B1 as the molecule, how does the EC50 [1] read?
**A.** ~90 nM

**Q.** And the “dPNAG hydrolysis (in words)” value [2]?
**A.** hydrolyze dPNAG

**Q.** What about the EC50 [3] of the same molecule?
**A.** > 1000 nM

B2: PslG31-442: soluble PslG glycosyl hydrolase construct, residues 31-442, P. aeruginosa PAO1, SEQ ID NO: 11 (protein, listed as Pseudomonas aeruginosa)
chain: EIQVLKAPRAVVWKDFLGVNAQFLWFSPERYNKQIDRLQDLGLEWVRLDLHWDRLETAEDQYQLASLDQLVKDLEARQLKSVFYLVGSARFITTAPFYSPFQDQYPPRDPEVFARRMAMLSQRYPSVAAWQVWNEPNLIGFWRPKADPEGYAKLLQASTIALRMVDPEKPVVSAGMAFFSEMPDGRTMFDALGHLGVESLGTIATYHPYTQLPEGNYPWNLDFVSHANQINRALRNAGVPAIWSTEWGWSAYKGPKELQDIIGVEGQADYVLRRLALMSALDYDRIFLFTLSDLDQRASVRDRDYGLLDLDANPKPVYLALQRFLKVTGPKLRPADPPVTEDLPDGSFSIGWTREDGRNVWLFWSARGGNVRLPKLKEATLHDPLSGKVTPLSGSDGLEVPVKSSLQMLVWE
**Q.** Which results are given for B2?
**A.** effect on PAO1 growth ([4]; 10 μM enzyme): did not prevent PAO1 growth; EC50 ([4]; PAO1 pBADpsl, static 24 h at 26° C., crystal violet): 4.1 ± 1.1 nM; time to disperse pre-formed Psl biofilm ([5]; 58 nM enzyme): 30 min; time to disperse / completely abolish pre-formed Psl biofilm ([5]; 86 nM enzyme): 35 min; effect on pre-formed Psl biofilm ([5]; 86 nM enzyme, after 20 min): significant reduction of the biofilm; dispersal of PNAG-dependent biofilms (in words) [3]: had no affect; concentration to which the protein could be concentrated [6]: 8 to 10 mg/mL; inhibition of Pel biofilm formation (in words) [7]: did not inhibit Pel biofilm formation; also recorded: unable at preventing biofilm formation

B3: Sph352-298: soluble Sph3 residues 52-298, Aspergillus fumigatus Af293, SEQ ID NO: 20 (protein, listed as Aspergillus fumigatus)
chain: SKVFVPLYVYPAPGAWTPLEDVISKHPDVNFTVVINPGSGPGPNALPDGNYTREIPKLASYENVRLLGYVATTYAKRNISLVRRDIETYAAWPTNSSNPALAVRGIFFDETPQQYDEDALAYLQELTDVVKNTPGLGPDHYVVHNPGAIPDSRYLSTADSTVVFEATYDTFQERHGAKLFEAIPDSNRSQLCAVIHSVPESVEGSALRSLVKQVRKVADEIFITHLDTDYYASFGRQWPEFVDLMGK
**Q.** With B3 as the molecule, how does the “activity against preformed biofilms of multiple A. fumigatus strains / clinical isolates” value [8] read?
**A.** dose-dependent activity; also recorded: active against multiple strains of A. fumigatus

**Q.** What about the “concentration sufficient at preventing GAG biofilm formation” value ([8]; FIG. 36, crystal violet) of the same molecule?
**A.** 280 nM

**Q.** And the “dispersal of pre-formed GAG biofilm (in words)” value [8]?
**A.** elimination of the GAG biofilms; also recorded: capable of disrupting GAG-dependent biofilms

**Q.** What about the “inhibition of A. fumigatus biofilm formation by recombinant Sph3 (in words)” value [9] of the same molecule?
**A.** inhibit the formation of A. fumigatus biofilms in a dose dependent manner

**Q.** And the “GAG hydrolysis, reducing ends (in words)” value [10]?
**A.** number of reducing ends in solution increased

**Q.** What about the “concentration to which the protein could be concentrated” value [6] of the same molecule?
**A.** 8 to 10 mg/mL

**Q.** What about the “epithelial cell damage by A. fumigatus, chromium release” value (“epithelial cell damage by A. fumigatus” below) [11] of the same molecule?
**A.** reduced fungal damage to epithelial cells

B4: PgaB310-672: PgaB C-terminal hydrolase domain residues 310-672, SEQ ID NO: 17 (protein, listed as Escherichia coli)
chain: EKSPQRIMHIDLDYVYDENLQQMDRNIDVLIQRVKDMQISTVYLQAFADPDGDGLVKEVWFPNRLLPMKADIFSRVAWQLRTRSGVNIYAWMPVLSWDLDPTLTRVKYLPTGEKKAQIHPEQYHRLSPFDDRVRAQVGMLYEDLAGHAAFDGILFHDDALLSDYEDASAPAITAYQQAGFSGSLSEIRQNPEQFKQWARFKSRALTDFTLELSARVKAIRGPHIKTARNIFALPVIQPESEAWFAQNYADFLKSYDWTAIMAMPYLEGVAEKSADQWLIQLTNQIKNIPQAKDKSILELQAQNWQKNGQHQAISSQQLAHWMSLLQLNGVKNYGYYPDNFLHNQPEIDLIRPEFSTAWYPKND
**Q.** With B4 as the molecule, how does the EC50 [1] read?
**A.** ~230 nM

**Q.** And the “dPNAG hydrolysis (in words)” value [2]?
**A.** hydrolyze dPNAG

**Q.** What about the EC50 [3] of the same molecule?
**A.** 200 nM

**Q.** And the “concentration to which the protein could be concentrated” value [6]?
**A.** 8 to 10 mg/mL

B5: BpsB27-701: full-length BpsB residues 27-701, B. bronchiseptica RB50, SEQ ID NO: 18 (protein, listed as Bordetella bronchiseptica)
chain: YKVDMLPPPDPDDGLTFRVLCMHDVRDNLRASFADMPDQFAIETRTLTDLFEWIRVKGFNPISMQQIIDSRAGVRPLPPRPILLTFDDGYASTYTKVFPLLKKFNYPAVVAVVTSWTDAPAGTKIRLSPKIEVPHDFFMTWAQLREMAQSGLVELASHSHNLHRGVLANPQGNEQPAASSRQYLPASGRYENDAEYRARVRQDLKTSADLIREHTGVTIRSIVWPYGAHNRDTDQVAAEVGLNIGLTLQPGPNTPDVALTQIRRSLVDYEVNVATVARAMREPVSYHGQVRPIERIVQVDLDYIYDPDPEQQNRNLGQLIDRMKDLAPSAVYLQAFADPKGDGDITEVYFPNRHLPMRADLFNRVAWQLKTRAGVMVYAWLPVLTFSVPPGNPAYGKVVQSTTRKPGERGLGSPTRLSPFHPDAHRVISEIYEDLAKAAHFDGLLFHDDAVLDDTEDSSPEALATYQGWGLPPDIAAIRADPKLAQQWSKGKIRYLIDFTMHLRHIVSGYQNDRDMVVARNLYAQPVLDPVSEAWYGQSLPEFLKSYDFVALMAMPNMEGAARPEQWMRQLVAAVARQKGLDRTIFELQARDWRVGKPIDTEILRRQMVQLRSLGAINYGYYPDDFIANHPDAEALRDVMSLKSTLEKRRLTKAQELSRQTTLYGSASQAEPTQR
**Q.** For B5, which EC50 [1] is on record?
**A.** ~40 nM

**Q.** What about the “dPNAG hydrolysis (in words)” value [2] of the same molecule?
**A.** hydrolyze dPNAG

**Q.** What about the EC50 [3] of the same molecule?
**A.** ~170 nM

B6: Sph3AN(43-299): Sph3 ortholog residues 43-299, Aspergillus nidulans FGSC A4, SEQ ID NO: 23 (protein)
chain: RRKNNNMGPKAKVFVPLYVYPAPGAWDPLVNVITAHPDVNFTVVVNPGSGPGPNPLPDRNYTQEIPRLTAHDNVRVLGYVATTYAKRNISSVRNDIETYAAWPTISANPKLAVRGIFFDETPQQYNASDLAYLEELTSVVKNTPGLGPDHFVFHNPGVVPDPRYLSTADSTVVFEATYDTFQDRDGARLFETIPNSNRSQLCAVVHSVPDSVEGSELRKFVKQARRVADEIFVTHLSTNYYASFGDKWDDFVRLMAQ
modifications: Aspergillus nidulans
**Q.** With B6 as the molecule, how does the “inhibition of A. fumigatus biofilm formation by recombinant Sph3 (in words)” value [9] read?
**A.** inhibit the formation of A. fumigatus biofilms in a dose dependent manner

**Q.** And the “epithelial cell damage by A. fumigatus” value [11]?
**A.** completely protected epithelial cells from damage by A. fumigatus for 24 h

**Q.** What about the “epithelial cell damage by A. fumigatus” value ([11]; listed as Sph3 from A. nidulans) of the same molecule?
**A.** reduced fungal damage to epithelial cells

B7: GmetPelA23-277: PelA ortholog, residues 23-277, from Geobacter metallireducens, SEQ ID NO: 14 (protein, listed as Geobacter metallireducens)
chain: PPLSVALYYGKQPPVNDLHAFDIVVIDPDSGLTPSEYGSGRSELFAYVSVGEADTARSYTKQMPDRWIIGKNPVWKSKIVDVSSEEWKQFFLDDVVEPLWQAGYRGFFLDTLDSYLIAAPTEAHPRMEAGLVSVVRAIRQRHPEARLILNRGFEIFDRVKDLVYAVAAESLFQNFNTVSGKYGAVDDKDRSWLTSRLNVIRETGVPVIAIDYVDPGNRPLMRETADKIRSLGFTPWVTDKDLAGLGIGSVEVMPRTVLGLYDGGEGAG
**Q.** Which “dispersal of pre-formed GAG biofilm (in words)” value [8] does the source give for B7 here?
**A.** less efficacious

**Q.** And the “dispersal of pre-formed GAG biofilm (in words)” value ([8]; listed as GmPelA23-277)?
**A.** less effective at eliminating GAG biofilms
